Experiments:
[1] = target: ClC-3c, C-terminally GFP-tagged (mouse); test: FRET or BRET; FLIM-FRET in co-transfected HEK293T cells 24 h after transfection; GFP donor (488 nm), mCherry acceptor; efficiency from the donor lifetime (phasor plot) against donor-only cells
[2] = target: ClC-3c, C-terminally GFP-tagged (mouse)

ClC-3c, C-terminally GFP-tagged (mouse), sequence (P51791 whole entry): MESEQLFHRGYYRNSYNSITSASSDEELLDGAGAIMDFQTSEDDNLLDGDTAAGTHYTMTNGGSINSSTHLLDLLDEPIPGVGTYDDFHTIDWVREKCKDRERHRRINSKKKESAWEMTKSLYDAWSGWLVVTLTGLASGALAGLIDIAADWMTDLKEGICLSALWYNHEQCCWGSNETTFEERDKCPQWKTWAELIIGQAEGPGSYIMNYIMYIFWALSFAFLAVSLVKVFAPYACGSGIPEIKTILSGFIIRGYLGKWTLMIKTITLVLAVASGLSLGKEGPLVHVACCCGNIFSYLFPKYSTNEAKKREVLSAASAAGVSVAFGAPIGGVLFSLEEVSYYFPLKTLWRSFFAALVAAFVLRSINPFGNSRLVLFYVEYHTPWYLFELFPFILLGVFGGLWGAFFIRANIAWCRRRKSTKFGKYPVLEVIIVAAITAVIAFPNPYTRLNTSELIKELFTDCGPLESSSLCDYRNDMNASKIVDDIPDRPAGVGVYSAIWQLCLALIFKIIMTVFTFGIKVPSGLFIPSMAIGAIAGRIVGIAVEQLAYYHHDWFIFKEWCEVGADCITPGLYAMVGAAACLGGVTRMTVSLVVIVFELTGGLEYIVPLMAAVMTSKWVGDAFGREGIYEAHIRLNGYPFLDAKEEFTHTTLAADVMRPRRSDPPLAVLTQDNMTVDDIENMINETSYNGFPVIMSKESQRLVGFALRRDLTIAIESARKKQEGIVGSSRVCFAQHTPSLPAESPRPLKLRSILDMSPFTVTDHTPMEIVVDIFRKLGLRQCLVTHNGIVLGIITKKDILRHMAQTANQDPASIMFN

FRET efficiency [1]: 0.17
fast time constant of ClC-3 current activation in HEK cells co-transfected with TMEM9B (double exponential fit, 500 ms pulses) [2]: 21 ms
reduction of ClC-3 activity (whole-cell currents) in HEK cells by co-expression of TMEM9B [2]: 70%
slow time constant of ClC-3 current activation in HEK cells co-transfected with TMEM9B (double exponential fit, 500 ms pulses) [2]: 120 ms
Substance: TMEM9 Domain Family Member B (TMEM9B), C-terminally mCherry-tagged (from UniProt Q9JJR8 35-199) (natural protein)
